# Source: the DeepSol protein solubility set
# Assay: soluble on expression in E. coli; label from the status in PepcDB or PDB records
row,Sequence,soluble on expression in E. coli
1,MGSDKIHHHHHHMKIVYCIAGTYNSGGMERVLANKANYLVSHGYEVVIITTDQREKQSFFELDQRINCCDLRINYEENNGKSFLNKLANYPFKQWKHRKRLTACLKQLKADIVVSMFCNDASFLWKIDDGSKKVLEIHFSRYKRLQYGRKGVWKIADRWRSRMDERTVRKYDRFVVLTAEDKAYWGNLSNMIVIPNALSHSTTELHLSPLTARKVIAIGRYGYQKGFDYLIEAWEIIHCAQPAWTLDIIGDGEWTDRLQRQIKRKRLNHCVFLKPPTGQIEEEYRQASLLVLSSRYEGLPMVLLEAQSFGLPIVSFACKCGPGDVITDGKNGFLVSVGNLPMLADRIMRLMEDEGLRKRMGMNAYHNSKTFSEERIMQCWIDMFDKLVSQR,not soluble
2,MSLKAVIFDLDGVITDTAEYHFLAWKHIAEQIDIPFDRDMNERLKGISREESLESILIFGGAETKYTNAEKQELMHRKNRDYQMLISKLTPEDLLPGIGRLLCQLKNENIKIGLASSSRNAPKILRRLAIIDDFHAIVDPTTLAKGKPDPDIFLTAAAMLDVSPADCAAIEDAEAGISAIKSAGMFAVGVGQGQPMLGADLVVRQTSDLTLELLHEEWEQYRIRESEGHHHHHH,soluble
3,MNYELIVVGGGPAGLAAAYEAYNNGIKNILILERDKELGGILNQCIHNGFGLHTFKEELTGPEYADRFIEMVKDTNVEVKLNTMVLEITKDKKVYAINSKEGYMELEAKAIILSMGCRERTRGAINIPGDRPAGVFTAGAAQRYINVEGYMPGKEVVILGSGDIGLIMARRMTLEGAKVKAVVELCPYSNGLNRNIVQCLNDYNIPLYLSHTVTDIIGKERLEKVIIAKVDENRRPIKGTEIEFDADTLLLSVGLIPENELSSNAGIELDRRTNGLRVTESMETSIDGIFACGNVVHVHDLVDFVTEESKRTGASAAKYIKGELKKDKYVNIVNGTNVNYTVPQKLNVDDVEDRLTIFMRVNNIYHNKVLVVRSKEEVIAKFKRAHLAPSEMEKVVLGKAFLDKIKSDITISLEDGE,not soluble
4,MGSDKIHHHHHHMGIDIKHEESSLVGLLTYIGRLKDEQFDYVIDLHNVIRSKIIRFYLRFFGVKGFSLKKPRLQLRQLTAKPPKKPTRLPSVIERYAQVFHKAGLEIHPPYPILLNDSGHISTELPIVEIGSGHHLIGIAPFAGHEAKTYPPEKMHEVVRTLAERDDVQIFLFGGKGKEKNILEQWADESPRIVSVAGLLSLPEELSLIHALRCMVSMDSANMHFASLVGTRVISIWCATHPAAGFLGYGQRIEDCIGADLDCRPCSVFGNKPCFRKDYACRTQIEPQLIINKIVSTLTDLNSDETEN,not soluble
5,MSLEQDKYLTVAAITKYIEKKFEVDPYMKQVFVRGEISNLKQPASGHLYFTVKDEFAMLRSVMFHKAVQKIGFVPEDGMNVLVTGRIGVFTKAGRYQFYAEHMEPDGVGALYIQLEQLKAQLEKEGLFAETHKKVLPSFPSKVAVVTSKTGAAVRDILTTIHRRMPSVEVIVYPTIVQGEKAAQKIVENIGKINQRNDIDVMIIGRGGGSLEELWAFNEEPVVRAVYDSDVPVISAVGHETDFALSDFSADVRAATPTAAAELAVPDYRDLEERLAERKYRLLAVTRQALERKERSLEQLKQHLILNGPKHQLEQQMERTDYFSERLNNAFSKQIFVKQTAFDRLNDRLHYYHPNKEIELQKEQMTLHLQALDKAMKQLLKDKQQSFFRQVDALEHLSPLSLLKRGFGVTYKENTLVKSVQELEVGDNIQVKMQGGHIDALITAKEEDISGNEGHHHHHH,soluble
6,MSLNPEEEVITLMKKAGIDLVATLPCDRIKNLLPLVSKNFPEIKMTREENGVGICAGFYLAGGKPLMLIQSTGLGNMINALESLNVTCKIPLPVLTSWRGVYKEAIEAQVPLGVHLPAILEGAGLAYTIIDEVEKLHQIENVISDAFENSRPHIALISPKVWEASECCAWQGAGMPEKPEVMERTCSIFLKKEVLKPVMLRNDAICAIASELDDEVTVTNLGVPCKELYACKDRDLNFYMFGSMGLVSSIGMGIALRSEKTVVAFDGDGSLLMNPNALLEIAKESPKNLIIIALDNGAYGSTGSQETCALRYIDLEIFANACGITNTAKVNAREELIKIFKKFRDMKELALIHVILKPGNTNAPNIPLSPEGAAKRFKEALEAKKNEGHHHHHH,soluble
7,MNEKHPGPLVVSGKLSDGERMKSESNFLRGTIAEDLNNGLTGGFSGDNFLLIRFHGMYQQDDRDIRAERAEQKLEPRHAMMLRCRLPGGIITPQQWLGIDKFAADNTLYGSIRITNRQTFQFHGILKGNVKPAHQLLNELGLDALATANDVNRNVLCTSNPVESALHQEAYEWAKKISEHLLPRTRAYAEIWLDAEKVATTDEEPILGATYLPRKFKTTVVIPPQNDVDLHANDLNFVAVADKGKLIGFNVLVGGGLSIAHGDKNTYPRKASEFGYIPLKHTLAIAEAVVTTQRDWGNRTDRKNAKTKYTLERVGVETFKAEVEKRAGVSFSAIKPYQFIGRGDRIGWVKGVDKKWHLTLFVENGRLLDYPGRSLKTGVAEIAKIHQGDFRLTANQNLIVAGVPEKDKARIEALAREHGLMDDNVTSQRENSMACVSFPTCPLAMAEAERFLPEFVTRVEGILQQHGLADEHIVLRVTGCPNGCGRALLAEVGLVGKAVGRYNLHLGGNREGTRIPRMYRENITADEILLITDQLVGRWAKERHVDEGFGDFVIRAGVIAPVIDSARDFYDVQEAM,not soluble
8,MSDSNTPNPPGTEERLVQQLDSYFSNTATGNETGEASAPAAPNNAAGTSDQDRPPNLAPILMLSYLNHCMSKKSFTPEDIQKSVWEQKSKKLSQEDWEFCKYFISSKELLLQLAPGKKRKTQAQALIELILKKFPGVGVEMLTRLLDPSESAYIIYDVIEQVKCEPKCDAESIKQEEFMYSQKINKKIRENNKCFKFSMVFERLRNGSSLPEEKPFAPLEFRTITSEYSNIYTQMVKATTYVELMDVMSKLKTTRLSVNELYFSAKHMQNPEKDTQDEFWEAESEKVLELQPLMIDPQLESTSRQRLKILQELALQQKMLKEVDEIISMSFELVTKSLSTGNPHNPADVQSLMINSNAPSIPDQRKNDWMEYYNLNPLGQYPISSHFPRSDRIGPKLPAVIQKISIRYCLSKEIEVIETIDEWKCREFCTYDHNLKDFRRHKCEICEVEVQECDLSLRQTKWCSHIEDQVLLMYNRVNGRLEQYVFSFETKGFKEVYCSCIEVTYRGKNGPEEPVLLTNGSEHVVIKEADPGVVKLQLVGENHVEIPAVPVQQLSAEEIEMQDAYDSSKSESESEHESEQISYNKTFISTLPMFKVRHCPLSRKDVLYVRSNNLGQYEKYDYHPTYHRFEPFKCSKCKDATSEDHLVPKYAEHCPETNEFVIHTENLFTERMEQYIYDSMTQGFRQVYYPQFLYDPSKDHTSNVFVTVNYLSTVITRDKDGRFKKEKFCDNLKKFVAIPEVEVNTFTVQELEKKKNKRRVDSDSDSFEHIEIPDMVSASP,not soluble
9,MGSDKIHHHHHHMTKKLPIGIQTFREIREESYYYVDKTSFALKLAMEGKYYFLSRPRRFGKSLFLDTLAELFAGNEALFHGLYCHDRWDWSVRYPIIRLSFAEGWLESRAQLDKRICWLLEQNQQRLGVTCKQESDIPGSFAELLQNAEAKYGQRCVVLVDEYDKPILDNITEPEIARAMREGLRNLYSVIKGQDAHIRFAFLTGVSKFSKVSIFSGLNNLNDITIDADYSAICGYTDEDVDTVFAPELPGLDRQQIQDWYNGYNWTGQPVYNPFDLLLLFDKREFRAYWFETGTPTFLVDWLMQRGYFTPSLSRQYSSLELLSAFDVDHIEPEALLFQTGYTTLQGVEEYLPGQRIYWLGYPNKEVQISLNNALLPALGIEGQKVLTHRIRLLELLRANNFAGLQQLFTSFFASIPHDWYRNNPIAQYEGYYASVFYSHFAALGLDIVVEDTTHHGRIDMAVTFNANVYLFEFKVVELVPEGHALEQLKTKGYAEKYKIRNEPIYLIGAEFSKDSRSVVAFDVELFA,not soluble
10,MAHHHHHHMDTSARRCFVEVYTDGCDEPRLLQLEPTVKFHNVLRRFDKDGDLYWGDHRIDPQTTPVAVGMDCGVDKANTLWFIPALPRAKPCGVSRVDSTAPLGSPPPVDATEGPALRPARGTSLPAYFDDRAAPWHSSGDHAARGSLIRAWMASASAATTPSWYSRPRLLSPVPLSLPRSAVRVPHTQVQPPSGMPTDPIMHAAGGSRHTGAPVAALEAHGGEKIAPVRRLCAAPAPRAPSPPHSTVPVRRNAPVCIDPHVLVDDTSDAVEALQTELRHLSSEMRAMRLRNPLDYNSVTPMRQVVVRPAGMDAAPAIASPICLSMAEPSVEELATELHDKQMHRLYKQRHLYLTHDFHV,not soluble
11,MGSDKIHHHHHHMLKDFAKLETFLIVVRERSFSKASAKLGISQPAVTQQIKYIEEYLDTKIIERKKNGVKLTKDGEKLLTIALRLERAIVTAEKETMKIIKKDFSFNIGASFTIGNYILPNCLGNIKEMIKNDVFVKIDSSDNIIEALIEKKIDLALIESPIFKDNIVYREWVEDEFVLFSNSPLPKTVKKEDLLTFSWICREWGSNTRRIINETLDDVGIDCTTFDIKGVVSSSTGVKHTVLKSPKFPEESPKPTVAILSKYVVQDDLVNNSLHESKIRGCKLKRKLYLAYLKDRKNDAFVDTVSSCLMCNKNLG,not soluble
12,LDKRWLQICEDASTLCADRVKEVLEGHGFTGLHVAAAVADTMAVGDTLFLGASNPVRDASLVGMPLGGVDIFAARGAAGIDGTVSQAVGVALDVQHRDATAIRADRTVALMGDVTFLHDVGGLLGARPENLTIVVANDDGCGIFETLEIGAPEFRPSFEQAFGTPHGVHIEAIAQAYGVNYLRAETLPELIEALIDTTDSAGFNIIEAVTTRSTRRDIDKALTL,not soluble
13,MWQQKSFQQNEKGVLYLVPTPIGNLEDMTFRAIRILKEADLIAAEDTRQTKKLCNYFEIETPVMSYHEHNKEVSGKKILEKLDEGKTVALVSDAGMPCISDPGYDIVVEAVAEQYHVIPLPGANAALTALIASGLQTKQFYFYGFLQRNKKERKMELEKLRYVQTTMMFYEAPHRLDDTLISMQEVLGNREIVLCRELTKKFEEFIRGTVEEAIEWTKQNEVRGEFCILVAGSTEEPAPEEQWWESISVYNHIEHYINEKGMNSKEAIKTVAKDRDLSKRDVYQIYHVDKK,soluble
14,KVTKLINDDPTLTHDQKVDQINKVEQAKLDAIKSVDDAQTADAINDALGKGIENINNQYQHGDGVDVRKATAKGDL,not soluble
15,NELDVPEQVDKLIQQATSIERLCQHYIGWCPFW,soluble
16,MGSDKIHHHHHHMPPLSIPADQYLRLSDKSQVRCYRSHFSDRMEMLAPPKNVAAYLDHHQGWFQRCAAPMEVKALDDQSYLLTLGRFGNFGFEVEPCIGLKLLPQQQGLYQIINVDLTHQDLPLCDHYDVDFKAGLKLEPSETEASNTVQQTTIVNWDLDLSVWIQLPKVITLLPDGLVQTSGDQLLRQVVRQISRRLTWKVQEDFHATHGLTCPPRRHAAF,not soluble
17,MAHHHHHHMPGSLKVQTGRGDARKTVKKTVLSKGNITRSDEPAGVADSAASASVAKSSSTTASTLTIAVALSMCEQERAVEAVKETIPASASREVLRKDPIYRIMHALPRSDVLEVVRSRFEKPHCERAAAYFDLSYMKNPLRHLRLQLGCDGPTGIYLFFRRIAAHRHTLRVVDFSRNRLSADDAVLICNTLGLGVAGDVATAPGTTKASSAGAVADSTVSTAVGASAQPASSLELLDLSYNAKLGNDGAVHVVRAVRRLPSIRAVILKSVGIDDAGAVAMADVVRRWPAPALCANSAAPHALLRPVTASATKFYLNLNENYIGARGTDVLGKGLPHYVSLTLAKQQPDPARDRKRSRDDDGAACR,not soluble
